Measurements reported in patent publication US11702475B2, “Cysteine engineered fibronectin type III domain binding molecules” (Janssen Biotech, Inc., priority 2013, dated 2023).

What was measured:
[1] = Analytical size exclusion chromatography (percent monomer); assay type: physicochemical; settings: NEM-conjugated cysteine variants; SEC, Abs280 monomer region 5.5-6 minutes vs oligomer region 4-5.3 minutes
Procedure, shortened: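 Purified FN3 domains were run on a Superdex 75 5/150 column in PBS pH 7.4 at 0.3 mL/min with A280 detection. Percent monomer came from integrating the monomer peak (5.5–6 min) against oligomer peaks (4–5.3 min).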

[2] = test system: EGFR-overexpressing human tumor cell line H1573; experiment: Cytotoxicity assay in H1573 cells; assay type: cell-based; settings: cysteine variants conjugated to VC-MMAF, Cell TiterGlo at 70 hours, read-out: IC50
Procedure: Cell killing was assessed by measuring viability of the EGFR-overexpressing human tumor cell line H1573 following exposure to the cysteine variant-cytotoxin conjugates. Cells were plated in black-well, clear bottomed, tissue culture-treated plates (Falcon 353219) at 7000/well in 100 μL/well of phenol red free RPMI media (Gibco 11835-030) with 5% fetal bovine serum (Gibco). Cells were allowed to attach overnight at 37° C. in a humidified 5% CO2 atmosphere. Medium was aspirated from 96-well plate and cells were treated with 50 uL of fresh media and 50 uL of 2× inhibitor made up in fresh media. Cell viability was determined by an endpoint assay with Cell TiterGlo (Promega) at 70 hours. IC50 values were determined by fitting data to the equation for a sigmoidal dose response with variable slope using GraphPad Prism 5 (GraphPad Software). Table 11 reports IC50 values obtained from analysis of the CellTiter Glo data.
Conjugates consisting of ECB147 cysteine variants, 83v2-cys, or Tencon-cys linked to a cytotoxic tubulin inhibitor from the auristatin family (FIG. 2) were tested for target-dependent cytotoxicity in cancer cells. The inhibitor was linked to the cysteine-containing protein via a non-cleavable PEG4 linker or an enzyme-cleavable valine-citrulline or valine-lysine linker. Cell killing was assessed by measuring viability of the EGFR-overexpressing human tumor cell lines H1573 and A431 as well as the EGFR-negative tumor cell line MDA-MB-435 following exposure to the protein-cytotoxin conjugates using the procedure described in Example 4.

[3] = Thermal stability of cysteine-NEM conjugates by DSC; assay type: physicochemical; settings: for First Scan Tm: DSC 25-100 °C, 1 °C per minute; for Second Scan Tm: second identical scan
Procedure: The thermal stability of cysteine-NEM conjugates was assessed by differential scanning calorimetry (DSC). The only the conjugates tested were those determined to express at high levels, conjugate efficiently, and retain EGFR binding. Additionally, cysteine variants within the BC and FG loops were excluded. Stability data was generated by heating a 400 μL aliquot of the variant from 25° C. to 100° C. at a scan rate of 1° C. per minute in a VP-DSC instrument (MicroCal). A second identical scan was completed on the sample in order to assess the reversibility of thermal folding/unfolding. Data was fitted to a 2-state unfolding model in order to calculate the melting temperature (Table 10).

B1: Y72C: cysteine variant of P54AR4-83v2; NEM and VC-MMAF conjugates (conjugate)
chain: LPAPKNLVVSEVTEDSARLSWDDPWAFYESFLIQYQESEKVGEAIVLTVPGSERSYDLTGLKPGTEYTVSICGVHNVYKDTNMRGLPLSAIFTT
modifications: left off: small tags and cut ends
notes: cysteine variant of P54AR4-83v2; NEM and VC-MMAF conjugates
In the case of B1, the Percent monomer [1] is reported as 100%, the IC50 [2] is reported as 1.85 nM and the “First Scan Tm” value [3] is reported as 70 °C. The “Second Scan Tm” value [3] was 69 °C.

B2: V74C: cysteine variant of P54AR4-83v2; NEM and VC-MMAF conjugates (conjugate)
chain: LPAPKNLVVSEVTEDSARLSWDDPWAFYESFLIQYQESEKVGEAIVLTVPGSERSYDLTGLKPGTEYTVSIYGCHNVYKDTNMRGLPLSAIFTT
modifications: left off: small tags and cut ends
notes: as for B1
For B2, the Percent monomer [1] was 100%, the IC50 [2] was 3.13 nM and the “First Scan Tm” value [3] was 68 °C. For the same molecule, the “Second Scan Tm” value [3] was 67 °C.

B3: K40C: cysteine variant of P54AR4-83v2 (SEQ ID NOS: 199 and 237); NEM and VC-MMAF conjugates (conjugate)
chain: MLPAPKNLVVSEVTEDSARLSWDDPWAFYESFLIQYQESECVGEAIVLTVPGSERSYDLTGLKPGTEYTVSIYGVHNVYKDTNMRGLPLSAIFTT
modifications: NEM or vcMMAF conjugate; EGFR binding FN3 domain
notes: NEM and VC-MMAF conjugates
With B3 the Percent monomer [1] was 97%, the IC50 [2] was 0.73 nM and the “First Scan Tm” value [3] was 70 °C. For the same molecule, the “Second Scan Tm” value [3] was 70 °C.

B4: I45C: cysteine variant of P54AR4-83v2 (SEQ ID NOS: 201 and 239); NEM and VC-MMAF conjugates (conjugate)
chain: MLPAPKNLVVSEVTEDSARLSWDDPWAFYESFLIQYQESEKVGEACVLTVPGSERSYDLTGLKPGTEYTVSIYGVHNVYKDTNMRGLPLSAIFTT
modifications: NEM or vcMMAF conjugate; EGFR binding FN3 domain
notes: NEM and VC-MMAF conjugates
For B4, the Percent monomer [1] was 97%, the IC50 [2] was 0.63 nM and the “First Scan Tm” value [3] was 69 °C. For the same molecule, the “Second Scan Tm” value [3] was 68 °C.

B5: K62C: cysteine variant of P54AR4-83v2 (SEQ ID 208 and 246); NEM and VC-MMAF conjugates (conjugate)
chain: MLPAPKNLVVSEVTEDSARLSWDDPWAFYESFLIQYQESEKVGEAIVLTVPGSERSYDLTGLCPGTEYTVSIYGVHNVYKDTNMRGLPLSAIFTT
modifications: NEM or vcMMAF conjugate; EGFR binding FN3 domain
notes: NEM and VC-MMAF conjugates
With B5 the Percent monomer [1] was 95%, the IC50 [2] was 1.25 nM and the “First Scan Tm” value [3] was 65 °C. For the same molecule, the “Second Scan Tm” value [3] was 65 °C.

B6: T59C: cysteine variant of P54AR4-83v2 (SEQ ID NOS: 206 and 244); NEM and VC-MMAF conjugates (conjugate)
chain: MLPAPKNLVVSEVTEDSARLSWDDPWAFYESFLIQYQESEKVGEAIVLTVPGSERSYDLCGLKPGTEYTVSIYGVHNVYKDTNMRGLPLSAIFTT
modifications: NEM or vcMMAF conjugate; EGFR binding FN3 domain
notes: NEM and VC-MMAF conjugates
With B6 the Percent monomer [1] was 100%, the IC50 [2] was 0.44 nM and the “First Scan Tm” value [3] was 67 °C. The “Second Scan Tm” value [3] was 67 °C.

B7: L47C: cysteine variant of P54AR4-83v2 (SEQ ID NOS: 202 and 240); NEM and VC-MMAF conjugates (conjugate)
chain: MLPAPKNLVVSEVTEDSARLSWDDPWAFYESFLIQYQESEKVGEAIVCTVPGSERSYDLTGLKPGTEYTVSIYGVHNVYKDTNMRGLPLSAIFTT
modifications: NEM or vcMMAF conjugate; EGFR binding FN3 domain
notes: NEM and VC-MMAF conjugates
For B7, the Percent monomer [1] was 100%, the IC50 [2] was 1.03 nM and the “First Scan Tm” value [3] was 67 °C. For the same molecule, the “Second Scan Tm” value [3] was 67 °C.

B8: S70C: cysteine variant of P54AR4-83v2 (SEQ ID NOS: 211 and 249); NEM and VC-MMAF conjugates (conjugate)
chain: MLPAPKNLVVSEVTEDSARLSWDDPWAFYESFLIQYQESEKVGEAIVLTVPGSERSYDLTGLKPGTEYTVCIYGVHNVYKDTNMRGLPLSAIFTT
modifications: NEM or vcMMAF conjugate; EGFR binding FN3 domain
notes: NEM and VC-MMAF conjugates
With B8 the Percent monomer [1] was 100%, the IC50 [2] was 1.14 nM and the “First Scan Tm” value [3] was 73 °C. The “Second Scan Tm” value [3] was 72 °C.

B9: G64C: cysteine variant of P54AR4-83v2 (SEQ ID NOS: 209 and 247); NEM and VC-MMAF conjugates (conjugate)
chain: MLPAPKNLVVSEVTEDSARLSWDDPWAFYESFLIQYQESEKVGEAIVLTVPGSERSYDLTGLKPCTEYTVSIYGVHNVYKDTNMRGLPLSAIFTT
modifications: NEM or vcMMAF conjugate; EGFR binding FN3 domain
notes: NEM and VC-MMAF conjugates
In the case of B9, the Percent monomer [1] is reported as 100%, the IC50 [2] is reported as 0.36 nM and the “First Scan Tm” value [3] is reported as 70 °C. For the same molecule, the “Second Scan Tm” value [3] was 70 °C.

B10: S89C: cysteine variant of P54AR4-83v2 (SEQ ID NOS: 213 and 251); NEM and VC-MMAF conjugates (conjugate)
chain: MLPAPKNLVVSEVTEDSARLSWDDPWAFYESFLIQYQESEKVGEAIVLTVPGSERSYDLTGLKPGTEYTVSIYGVHNVYKDTNMRGLPLCAIFTT
modifications: NEM or vcMMAF conjugate; EGFR binding FN3 domain
notes: NEM and VC-MMAF conjugates
For B10, the Percent monomer [1] was 96%, the IC50 [2] was 0.94 nM and the “First Scan Tm” value [3] was 72 °C. For the same molecule, the “Second Scan Tm” value [3] was 71 °C.

B11: T48C: cysteine variant of P54AR4-83v2 (SEQ ID NOS: 203 and 241); NEM and VC-MMAF conjugates (conjugate)
chain: MLPAPKNLVVSEVTEDSARLSWDDPWAFYESFLIQYQESEKVGEAIVLCVPGSERSYDLTGLKPGTEYTVSIYGVHNVYKDTNMRGLPLSAIFTT
modifications: NEM or vcMMAF conjugate; EGFR binding FN3 domain
notes: NEM and VC-MMAF conjugates
With B11 the Percent monomer [1] was 90%, the IC50 [2] was 0.59 nM and the “First Scan Tm” value [3] was 72 °C. For the same molecule, the “Second Scan Tm” value [3] was 72 °C.

B12: V41C: cysteine variant of P54AR4-83v2 (SEQ ID NOS: 200 and 238); NEM and VC-MMAF conjugates (conjugate)
chain: MLPAPKNLVVSEVTEDSARLSWDDPWAFYESFLIQYQESEKCGEAIVLTVPGSERSYDLTGLKPGTEYTVSIYGVHNVYKDTNMRGLPLSAIFTT
modifications: NEM or vcMMAF conjugate; EGFR binding FN3 domain
notes: NEM and VC-MMAF conjugates
With B12 the Percent monomer [1] was 98%, the IC50 [2] was 1.13 nM and the “First Scan Tm” value [3] was 71 °C. The “Second Scan Tm” value [3] was 71 °C.

B13: R54C: cysteine variant of P54AR4-83v2 (SEQ ID NOS: 205 and 243); NEM and VC-MMAF conjugates (conjugate)
chain: MLPAPKNLVVSEVTEDSARLSWDDPWAFYESFLIQYQESEKVGEAIVLTVPGSECSYDLTGLKPGTEYTVSIYGVHNVYKDTNMRGLPLSAIFTT
modifications: NEM or vcMMAF conjugate; EGFR binding FN3 domain
notes: NEM and VC-MMAF conjugates
For B13, the Percent monomer [1] was 96%, the IC50 [2] was 0.37 nM and the “First Scan Tm” value [3] was 65 °C. For the same molecule, the “Second Scan Tm” value [3] was 65 °C.

B14: L88C: cysteine variant of P54AR4-83v2 (SEQ ID NOS: 212 and 250); NEM and VC-MMAF conjugates (conjugate)
chain: MLPAPKNLVVSEVTEDSARLSWDDPWAFYESFLIQYQESEKVGEAIVLTVPGSERSYDLTGLKPGTEYTVSIYGVHNVYKDTNMRGLPCSAIFTT
modifications: NEM or vcMMAF conjugate; EGFR binding FN3 domain
notes: NEM and VC-MMAF conjugates
For B14, the Percent monomer [1] was 98%, the IC50 [2] was 0.81 nM and the “First Scan Tm” value [3] was 70 °C. For the same molecule, the “Second Scan Tm” value [3] was 70 °C.

B15: G60C: cysteine variant of P54AR4-83v2 (SEQ ID NOS: 207 and 245); NEM and VC-MMAF conjugates (conjugate)
chain: MLPAPKNLVVSEVTEDSARLSWDDPWAFYESFLIQYQESEKVGEAIVLTVPGSERSYDLTCLKPGTEYTVSIYGVHNVYKDTNMRGLPLSAIFTT
modifications: NEM or vcMMAF conjugate; EGFR binding FN3 domain
notes: NEM and VC-MMAF conjugates
With B15 the Percent monomer [1] was 100%, the IC50 [2] was 1 nM and the “First Scan Tm” value [3] was 66 °C. For the same molecule, the “Second Scan Tm” value [3] was 66 °C.
